Non-standard residues stand in square brackets, D forms with d. *: point of attachment. X3 = ((1S)-1-Carboxy-2-hydroxyethyl)carbamoyl, O=C(O)[C@H](CO)NC(=O)*; X2 = (tetrahydro-2H-pyran-4-ylmethyl)carbamoyl, O=C(NCC1CCOCC1)*; X8 = (2-Hydroxy-1-(hydroxymethyl)ethyl)carbamoyl, O=C(NC(CO)CO)*; X7 = (tetrahydro-2H-pyran-4-yl)carbamoyl, O=C(NC1CCOCC1)*; (3-carboxypropyl)carbamoyl = O=C(O)CCCNC(=O)*; (2-carboxyethyl)carbamoyl = O=C(O)CCNC(=O)*; (carboxymethyl)carbamoyl = O=C(O)CNC(=O)*; Tetrahydropyran4carbonyl = O=C(C1CCOCC1)*; tBuAla = CC(C)(C)C[C@H](N)C(=O)O; 4Pal = N[C@@H](Cc1ccncc1)C(=O)O; dHyp = O=C(O)[C@H]1C[C@H](O)CN1; Cha = N[C@@H](CC1CCCCC1)C(=O)O; Iva = CC[C@](C)(N)C(=O)O; Nva = CCC[C@H](N)C(=O)O; Aib = CC(C)(N)C(=O)O
Legend:
[1] = biological target: human Y2 receptor (human) (UniProt P49146); assay: cell-based or functional assay
[2] = biological target: human Y2 receptor (human) (UniProt P49146); assay: RBA: displacement of [125I]-PYY from hY2R/CHO membranes

human Y2 receptor (human), sequence (P49146 whole entry): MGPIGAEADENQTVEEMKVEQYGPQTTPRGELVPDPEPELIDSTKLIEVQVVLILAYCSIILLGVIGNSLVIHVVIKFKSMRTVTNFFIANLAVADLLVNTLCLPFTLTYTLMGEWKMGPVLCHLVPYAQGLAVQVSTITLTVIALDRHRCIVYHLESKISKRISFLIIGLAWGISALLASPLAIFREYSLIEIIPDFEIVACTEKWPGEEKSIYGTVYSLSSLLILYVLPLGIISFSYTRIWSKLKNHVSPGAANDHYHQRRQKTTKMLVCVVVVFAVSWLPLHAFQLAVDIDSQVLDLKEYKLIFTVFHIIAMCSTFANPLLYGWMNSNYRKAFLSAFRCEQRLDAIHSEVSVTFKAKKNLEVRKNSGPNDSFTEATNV

GBA EC50 Ratio ([35S]GTPγS binding) (EC50 compound/EC50 PYY(3-36)) [1]	IC50 Ratio (IC50 compound/IC50 PYY(3-36)) [2]	Binder
2.8	6.1	Ac-E[dP][Iva][4Pal][Cha][Aib]NK[Aib]TRQR[Cha]-NH2 (SMILES CC[C@](C)(NC(=O)[C@H]1CCCN1C(=O)[C@H](CCC(=O)O)NC(C)=O)C(=O)N[C@@H](Cc1ccncc1)C(=O)N[C@@H](CC1CCCCC1)C(=O)NC(C)(C)C(=O)N[C@@H](CC(N)=O)C(=O)N[C@@H](CCCCN)C(=O)NC(C)(C)C(=O)N[C@H](C(=O)N[C@@H](CCCNC(=N)N)C(=O)N[C@@H](CCC(N)=O)C(=O)N[C@@H](CCCNC(=N)N)C(=O)N[C@@H](CC1CCCCC1)C(N)=O)[C@@H](C)O) [Ac-[Glu23, D-Pro24, Iva25, Pya(4)26, Cha27,36, Aib28,31, Lys30]-PYY(23-36)]
1.3	1.6	Ac-S[dP][Iva][4Pal][Cha][Nva]NK[Aib]TRQR[Cha]-NH2 (SMILES CCC[C@H](NC(=O)[C@H](CC1CCCCC1)NC(=O)[C@H](Cc1ccncc1)NC(=O)[C@](C)(CC)NC(=O)[C@H]1CCCN1C(=O)[C@H](CO)NC(C)=O)C(=O)N[C@@H](CC(N)=O)C(=O)N[C@@H](CCCCN)C(=O)NC(C)(C)C(=O)N[C@H](C(=O)N[C@@H](CCCNC(=N)N)C(=O)N[C@@H](CCC(N)=O)C(=O)N[C@@H](CCCNC(=N)N)C(=O)N[C@@H](CC1CCCCC1)C(N)=O)[C@@H](C)O) [Ac-[D-Pro24, Iva25, Pya(4)26, Cha27,36, Nva28, Aib31, Lys30]-PYY(23-36)]
3	3.5	X3-S[dP][Iva][4Pal][Cha][Aib]NK[Aib]TRQR[Cha]-NH2 (SMILES CC[C@](C)(NC(=O)[C@H]1CCCN1C(=O)[C@H](CO)NC(=O)N[C@@H](CO)C(=O)O)C(=O)N[C@@H](Cc1ccncc1)C(=O)N[C@@H](CC1CCCCC1)C(=O)NC(C)(C)C(=O)N[C@@H](CC(N)=O)C(=O)N[C@@H](CCCCN)C(=O)NC(C)(C)C(=O)N[C@H](C(=O)N[C@@H](CCCNC(=N)N)C(=O)N[C@@H](CCC(N)=O)C(=O)N[C@@H](CCCNC(=N)N)C(=O)N[C@@H](CC1CCCCC1)C(N)=O)[C@@H](C)O)
1.8	1.7	X7-S[dP][Iva][4Pal][Cha][Aib]NK[Aib]TRQR[Cha]-NH2 (SMILES CC[C@](C)(NC(=O)[C@H]1CCCN1C(=O)[C@H](CO)NC(=O)NC1CCOCC1)C(=O)N[C@@H](Cc1ccncc1)C(=O)N[C@@H](CC1CCCCC1)C(=O)NC(C)(C)C(=O)N[C@@H](CC(N)=O)C(=O)N[C@@H](CCCCN)C(=O)NC(C)(C)C(=O)N[C@H](C(=O)N[C@@H](CCCNC(=N)N)C(=O)N[C@@H](CCC(N)=O)C(=O)N[C@@H](CCCNC(=N)N)C(=O)N[C@@H](CC1CCCCC1)C(N)=O)[C@@H](C)O) [(Tetrahydro-2H-pyran-4-yl)carbamoyl-[D-Pro24, Iva25, Pya(4)26, Cha27,36, Aib28,31, Lys30]-PYY(23-36)]
1.9	1.2	Ac-E[dHyp][Iva][4Pal][Cha][tBuAla]NK[Aib]TRQR[Cha]-NH2 (SMILES CC[C@](C)(NC(=O)[C@H]1C[C@H](O)CN1C(=O)[C@H](CCC(=O)O)NC(C)=O)C(=O)N[C@@H](Cc1ccncc1)C(=O)N[C@@H](CC1CCCCC1)C(=O)N[C@@H](CC(C)(C)C)C(=O)N[C@@H](CC(N)=O)C(=O)N[C@@H](CCCCN)C(=O)NC(C)(C)C(=O)N[C@H](C(=O)N[C@@H](CCCNC(=N)N)C(=O)N[C@@H](CCC(N)=O)C(=O)N[C@@H](CCCNC(=N)N)C(=O)N[C@@H](CC1CCCCC1)C(N)=O)[C@@H](C)O) [Ac-[Glu23, D-Hyp24, Iva25, Pya(4)26, Cha27,36, Leu(Me)28, Lys30, Aib31]-PYY(23-36)]
1.9	1.6	{(3-carboxypropyl)carbamoyl}-S[dP][Iva][4Pal][Cha][Aib]NK[Aib]TRQR[Cha]-NH2 (SMILES CC[C@](C)(NC(=O)[C@H]1CCCN1C(=O)[C@H](CO)NC(=O)NCCCC(=O)O)C(=O)N[C@@H](Cc1ccncc1)C(=O)N[C@@H](CC1CCCCC1)C(=O)NC(C)(C)C(=O)N[C@@H](CC(N)=O)C(=O)N[C@@H](CCCCN)C(=O)NC(C)(C)C(=O)N[C@H](C(=O)N[C@@H](CCCNC(=N)N)C(=O)N[C@@H](CCC(N)=O)C(=O)N[C@@H](CCCNC(=N)N)C(=O)N[C@@H](CC1CCCCC1)C(N)=O)[C@@H](C)O) [(3-Carboxypropyl)carbamoyl-[D-Pro24, Iva25, Pya(4)26, Cha27,36, Aib28,31, Lys30]-PYY(23-36)]
0.78	0.88	Ac-R[dP][Iva][4Pal][Cha][Aib]NK[Aib]TRQR[Cha]-NH2 (SMILES CC[C@](C)(NC(=O)[C@H]1CCCN1C(=O)[C@H](CCCNC(=N)N)NC(C)=O)C(=O)N[C@@H](Cc1ccncc1)C(=O)N[C@@H](CC1CCCCC1)C(=O)NC(C)(C)C(=O)N[C@@H](CC(N)=O)C(=O)N[C@@H](CCCCN)C(=O)NC(C)(C)C(=O)N[C@H](C(=O)N[C@@H](CCCNC(=N)N)C(=O)N[C@@H](CCC(N)=O)C(=O)N[C@@H](CCCNC(=N)N)C(=O)N[C@@H](CC1CCCCC1)C(N)=O)[C@@H](C)O) [Ac-[Arg23, D-Pro24, Iva25, Pya(4)26, Cha27,36, Aib28,31, Lys30]-PYY(23-36)]
1.6	3	{(carboxymethyl)carbamoyl}-S[dP][Iva][4Pal][Cha][Aib]NK[Aib]TRQR[Cha]-NH2 (SMILES CC[C@](C)(NC(=O)[C@H]1CCCN1C(=O)[C@H](CO)NC(=O)NCC(=O)O)C(=O)N[C@@H](Cc1ccncc1)C(=O)N[C@@H](CC1CCCCC1)C(=O)NC(C)(C)C(=O)N[C@@H](CC(N)=O)C(=O)N[C@@H](CCCCN)C(=O)NC(C)(C)C(=O)N[C@H](C(=O)N[C@@H](CCCNC(=N)N)C(=O)N[C@@H](CCC(N)=O)C(=O)N[C@@H](CCCNC(=N)N)C(=O)N[C@@H](CC1CCCCC1)C(N)=O)[C@@H](C)O) [(Carboxymethyl)carbamoyl-[D-Pro24, Iva25, Pya(4)26, Cha27,36, Aib28,31, Lys30]-PYY(23-36)]
2.4	3.2	{(2-carboxyethyl)carbamoyl}-S[dP][Iva][4Pal][Cha][Aib]NK[Aib]TRQR[Cha]-NH2 (SMILES CC[C@](C)(NC(=O)[C@H]1CCCN1C(=O)[C@H](CO)NC(=O)NCCC(=O)O)C(=O)N[C@@H](Cc1ccncc1)C(=O)N[C@@H](CC1CCCCC1)C(=O)NC(C)(C)C(=O)N[C@@H](CC(N)=O)C(=O)N[C@@H](CCCCN)C(=O)NC(C)(C)C(=O)N[C@H](C(=O)N[C@@H](CCCNC(=N)N)C(=O)N[C@@H](CCC(N)=O)C(=O)N[C@@H](CCCNC(=N)N)C(=O)N[C@@H](CC1CCCCC1)C(N)=O)[C@@H](C)O) [(2-Carboxyethyl)carbamoyl-[D-Pro24, Iva25, Pya(4)26, Cha27,36, Aib28,31, Lys30]-PYY(23-36)]
1.9	3.3	Tetrahydropyran4carbonyl-S[dP][Iva][4Pal][Cha][Aib]NK[Aib]TRQR[Cha]-NH2 (SMILES CC[C@](C)(NC(=O)[C@H]1CCCN1C(=O)[C@H](CO)NC(=O)C1CCOCC1)C(=O)N[C@@H](Cc1ccncc1)C(=O)N[C@@H](CC1CCCCC1)C(=O)NC(C)(C)C(=O)N[C@@H](CC(N)=O)C(=O)N[C@@H](CCCCN)C(=O)NC(C)(C)C(=O)N[C@H](C(=O)N[C@@H](CCCNC(=N)N)C(=O)N[C@@H](CCC(N)=O)C(=O)N[C@@H](CCCNC(=N)N)C(=O)N[C@@H](CC1CCCCC1)C(N)=O)[C@@H](C)O) [(Tetrahydro-2H-pyran-4-yl)carbonyl-[D-Pro24, Iva25, Pya(4)26, Cha27,36, Aib28,31, Lys30]-PYY(23-36)]
2	1.76	X8-S[dP][Iva][4Pal][Cha][Aib]NK[Aib]TRQR[Cha]-NH2 (SMILES CC[C@](C)(NC(=O)[C@H]1CCCN1C(=O)[C@H](CO)NC(=O)NC(CO)CO)C(=O)N[C@@H](Cc1ccncc1)C(=O)N[C@@H](CC1CCCCC1)C(=O)NC(C)(C)C(=O)N[C@@H](CC(N)=O)C(=O)N[C@@H](CCCCN)C(=O)NC(C)(C)C(=O)N[C@H](C(=O)N[C@@H](CCCNC(=N)N)C(=O)N[C@@H](CCC(N)=O)C(=O)N[C@@H](CCCNC(=N)N)C(=O)N[C@@H](CC1CCCCC1)C(N)=O)[C@@H](C)O)
1.7	1.7	Carbamoylmethylcarbamoyl-S[dP][Iva][4Pal][Cha][Aib]NK[Aib]TRQR[Cha]-NH2 [Carbamoylmethylcarbamoyl-[D-Pro24, Iva25, Pya(4)26, Cha27,36, Aib28,31, Lys30]-PYY(23-36)]
1.9	1.7	X2-S[dP][Iva][4Pal][Cha][Aib]NK[Aib]TRQR[Cha]-NH2 (SMILES CC[C@](C)(NC(=O)[C@H]1CCCN1C(=O)[C@H](CO)NC(=O)NCC1CCOCC1)C(=O)N[C@@H](Cc1ccncc1)C(=O)N[C@@H](CC1CCCCC1)C(=O)NC(C)(C)C(=O)N[C@@H](CC(N)=O)C(=O)N[C@@H](CCCCN)C(=O)NC(C)(C)C(=O)N[C@H](C(=O)N[C@@H](CCCNC(=N)N)C(=O)N[C@@H](CCC(N)=O)C(=O)N[C@@H](CCCNC(=N)N)C(=O)N[C@@H](CC1CCCCC1)C(N)=O)[C@@H](C)O)

— patent publication US20120172293A1 (Takeda / Millennium, published 2012)
